Reference: patent publication US20250000945A1, “Suppression of Neurodegeneration with Zinc Transporter Protein 7” (The Regents of the University of California, priority 2021, published 2025)

Columns and labels:
[1] = test system: border cells; assay: Border cell migration in stage 10 egg chambers expressing Catsup RNAi (rescue by co-expressed transgenes); format: in vivo, Drosophila; details: co-expressed with Catsup RNAi in border cells
Text: Border cell clusters are composed of 4-6 migratory cells that surround and carry two non-migratory polar cells. Expression of a Catsup RNAi line in outer, migratory border cells using fruitlessGal4^51 inhibited migration (FIG. 2A). The defect was rescued by co-expression of UAS-CatsupV5 (FIG. 2B). Reduction of Catsup::GFP confirmed the effectiveness of the RNAi (FIGS. 2C, C′ and 2D, D′). Border cell migration was also impaired when Catsup RNAi was driven by c306Gal4 (FIG. 2E), which is expressed in both polar and migratory cells.
ZIP7 resides in the ER membrane and transports Zn^2+ from the ER to the cytosol^64. To test whether the Zn^2+ transporter activity of Catsup was important for border cell migration, we introduced point mutations, H315A and H344A, which replace histidine residues that are required for Zn^2+ transport and are conserved between Catsup, ZIP7 and a more distant family member from Arabidopsis IRT1. […] We generated transgenic flies expressing the mutants under Gal4/UAS control and included a V5 tag so that we could monitor protein abundance and localization. We then co-expressed each of these RNAi-resistant transgenes with CatsupRNAi and evaluated protein expression and border cell migration (FIGS. 5B-5E). […] All the proteins were stably expressed and correctly localized to the ER (FIGS. 5B-5E), therefore the lack of rescue was likely a consequence of impaired transporter activity rather than impaired expression, localization, or another function. […] From these experiments, we conclude that Zn^2+ transport is an essential function of Catsup in promoting ERAD.
Catsup mutant fly was generated by ethyl methanesulfonate (EMS) mutagen^37. The mutation results in glycine(G) to aspartic acid(D) replacement at amino acid 178. The FLP/FRT system was used to generate the Catsup^G178D homozygous mutant clones by combining FRT40A-Catsup^G178D with hsFLP12,yw;ubi:GFPnls, FRT40A or hsFLP12,yw;ubi:RFPnls, FRT40A/(CyO). Catsup::GFP expression pattern visualized by the line from VDRC 318542 in the fTRG stocks library. The UAS-CatsupRNAi transgenic line is from VDRC 100095 P{KK103630}VIE-260B. Wild type rescue w[*]; sna[Sco]/CyO; P{w[+mCJ=UAS-Catsup. V5}6 Bloomington 63229. Additional transgenic Drosophila stocks used: UAS-wRNAi/Cyo is a lab stock, UAS-PleRNAi Bloomington 25796 y[1] v[1]; P{y[+t7.7] v[+t1.8]=TRiP.JF01813}attP2, UAS-Ple is Bloomington 37539 w[*]; P{w[+mC]=UAS-ple.T}331f2, O-fucosyltransferasel Bloomington 9376 P{UAS-O-fut.}]1.1, UAS-Notch.Intracellular.Domain on third chromosome was a gift from Artavanis-Tsakonas lab^71. The ER stress marker UAS-Xbp1-EGFP.HG Bloomington 60731 w[*]; P{w[+mC]=UAS-Xbp1.EGFP.HG}3, UAS-HSC70-3 Bloomington 5843 w[126]; P{w[+mC]=UAS-Hsc70-3. WT}B. Catsup point mutations were cloned into vector pUASt-attb with forward primer ctctgaatagggaattggg[…] (SEQ ID NO:1) and reverse primer ccgcagatctgttaacgtca[…] (SEQ ID NO:2). The vector was injected to attp2 flies y1 w67c23; P{CaryP}attP2 by BestGene Inc.
When generating UAS-Catsup-point-mutations, we designed the construct so it cannot be targeted by the CatsupRNAi sequences by substituting redundant codons for the same amino acids within the region targeted by the RNAi. The RNAi resistant sequence is below with nucleic acid substitutions in lower case:
Point mutations were designed by changing codons at the following site CatsupH183A (CAC to GCC), CatsupH187A (CAT to GCT), CatsupH315A (CAT to GCT), CatsupH344A ([…]). […]

[2] = test system: Notch and EGFR; assay: Intracellular accumulation of Notch and EGFR in mosaic clones expressing CatsupRNAi; format: in vivo, Drosophila; details: mosaic expression with CatsupRNAi
Text: In wing imaginal disc epithelia, multiple transmembrane receptor proteins, including Notch and EGFR, accumulate abnormally in Catsup mutant cells^40. We similarly found abnormal intracellular accumulation of Notch in follicle cells generally (FIG. 3D, D′) and border cells specifically (FIG. 3E, E′) upon Catsup knockdown. […] As in imaginal discs, EGFR also accumulated abnormally in Catsup RNAi-expressing border cells (FIG. 3G, G′) and epithelial follicle cells (FIG. 3H, H′), whereas E-Cadherin was unaffected (FIG. 31, I′). From these observations, we conclude that Catsup prevents intracellular accumulation of particular transmembrane proteins and promotes Notch signaling, migration and survival in multiple cell types and organisms.
ZIP7 resides in the ER membrane and transports Zn^2+ from the ER to the cytosol^64. To test whether the Zn^2+ transporter activity of Catsup was important for border cell migration, we introduced point mutations, H315A and H344A, which replace histidine residues that are required for Zn^2+ transport and are conserved between Catsup, ZIP7 and a more distant family member from Arabidopsis IRT1. […] We then co-expressed each of these RNAi-resistant transgenes with CatsupRNAi and evaluated protein expression and border cell migration (FIGS. 5B-5E). […]

Molecule | rescue of border cell migration defect [1] | rescue of accumulation of Notch and EGFR [2]
O-fucosyltransferase-1: Notch specific chaperone, overexpressed from a UAS transgene (protein, UniProt Q9V6X7 24-402, looked up) GDP-fucose protein …: QLGGDPNGYLTYCPCMGRFGNQADHFLGSLAFAKALNRTLILPPWVEYRRGELRSRQVPFNTYFEVEPLKEYHRVITMADFMWHLADDIWPESERVSFCYKERYSLQQEKNDPDKPNCHAKDGNPFGPFWDTFHIDFVRSEFYAPLHFDVHHSNEAAKWQTKYPAESYPVLAFTGAPASFPVQLENCKLQRYLQWSQRYREASKDFIREQLPRGAFLGIHLRNGIDWVRACEHVKDSQHLFASPQCLGYKNERGALYPELCMPSKEAIIRQLKRTIKNVRQTQPDNEIKSVFVASDSNHMIGELNTALSRMGISVHKLPEDDPYLDLAILGQSNHFIGNCISSYSAFEKRERDVHGFPSYFWGFPKEKDRKHTNVHEEL | neither NICD expression nor overexpression of the Notch specific chaperone O-fucosyltransferase-1^58 was sufficient to rescue Catsup RNAi | 
Catsup^H187A: V5-tagged RNAi-resistant Catsup point mutant that does not disrupt Zn2+ transport (control) (protein, UniProt Q9V3A4 1-449, looked up, variant H187A, V5 tag) Protein catecholamines up: MAKQVADYQCSKLQLYQKLALVVILGAVLFSLPALCAGQGNPSFKYSREANENFDPQKAPRAEHHHHHDHDHDHGHHHHGHDHDHDHDHGHDHGHHHHGHDHDHDHDHGHHHHGHDERHTKAKPDLDMSTIWLHSIGSTLLISAAPFVLLYIIPLDNSEAMKPRLKVLLAFASGGLLGDAFLHLIPAATHPHSHGEHGHDHGHDHHHHHDGEEHEHGHSHDMSIGLWVLGGIIAFLSVEKLVRILKGGHGGHGHSHGAPKPKPVPAKKKSSDKEDSGDGDKPAKPAKIKSKKPEAEPEGEVEISGYLNLAADFAHNFTDGLAIGASYLAGNSIGIVTTITILLHEVPHEIGDFAILIKSGCSRRKAMLLQLVTALGALAGTALALLGAGGGDGSAPWVLPFTAGGFIYIATVSVLPELLEESTKLKQSLKEIFALLTGVALMIVIAKFE | rescue border cell migration to nearly wild type levels | did
Catsup^H315A: V5-tagged RNAi-resistant Catsup point mutant replacing a histidine required for Zn2+ transport (protein, UniProt Q9V3A4 1-449, looked up, variant H315A) Protein catecholamines up: MAKQVADYQCSKLQLYQKLALVVILGAVLFSLPALCAGQGNPSFKYSREANENFDPQKAPRAEHHHHHDHDHDHGHHHHGHDHDHDHDHGHDHGHHHHGHDHDHDHDHGHHHHGHDERHTKAKPDLDMSTIWLHSIGSTLLISAAPFVLLYIIPLDNSEAMKPRLKVLLAFASGGLLGDAFLHLIPHATHPHSHGEHGHDHGHDHHHHHDGEEHEHGHSHDMSIGLWVLGGIIAFLSVEKLVRILKGGHGGHGHSHGAPKPKPVPAKKKSSDKEDSGDGDKPAKPAKIKSKKPEAEPEGEVEISGYLNLAADFAANFTDGLAIGASYLAGNSIGIVTTITILLHEVPHEIGDFAILIKSGCSRRKAMLLQLVTALGALAGTALALLGAGGGDGSAPWVLPFTAGGFIYIATVSVLPELLEESTKLKQSLKEIFALLTGVALMIVIAKFE | neither Castup^H344A nor Catsup^H315A provided significant rescue | 
Catsup^H183A: V5-tagged RNAi-resistant Catsup point mutant that does not disrupt Zn2+ transport (control) (protein, UniProt Q9V3A4 1-449, looked up, variant H183A, V5 tag) Protein catecholamines up: MAKQVADYQCSKLQLYQKLALVVILGAVLFSLPALCAGQGNPSFKYSREANENFDPQKAPRAEHHHHHDHDHDHGHHHHGHDHDHDHDHGHDHGHHHHGHDHDHDHDHGHHHHGHDERHTKAKPDLDMSTIWLHSIGSTLLISAAPFVLLYIIPLDNSEAMKPRLKVLLAFASGGLLGDAFLALIPHATHPHSHGEHGHDHGHDHHHHHDGEEHEHGHSHDMSIGLWVLGGIIAFLSVEKLVRILKGGHGGHGHSHGAPKPKPVPAKKKSSDKEDSGDGDKPAKPAKIKSKKPEAEPEGEVEISGYLNLAADFAHNFTDGLAIGASYLAGNSIGIVTTITILLHEVPHEIGDFAILIKSGCSRRKAMLLQLVTALGALAGTALALLGAGGGDGSAPWVLPFTAGGFIYIATVSVLPELLEESTKLKQSLKEIFALLTGVALMIVIAKFE | rescue border cell migration to nearly wild type levels | did
